Experimental data published in US20260234276A1.

Biological target: human CCR8 (human) (UniProt P51685)
Test: flow cytometry, hCCR8 transfected CHOK1 cells

% positive cells: 42.5%
MFI fold change to isotype ctrl: 2.76 fold
B1: 3-27 (antibody, V domains shown)
VH: EVKLVESGGGLVKSGGSLKLSCAASGFTFSSYAMSWVRQTPEKRLEWVASINSGGSIYYPDSVKGRFTISRDNARNILYLQMSSLRSEDTAMYYCARGFGAYWGQGTLVTVSA
VL: DIQMTQSPSSLSASLGERVTLTCRASQDIGSSLHWLQQEPDGTIKRLIYATSSLDSGVPKRFSGSRSGSDYSLTISSLESEDFVDYYCLQYATSPTFGGGTKLEIK
